Publication PMC5803617 (Journal of Cachexia, Sarcopenia and Muscle, 2017)

Columns and labels:
[1] = molecular target: GST-MuRF1/telethonin complexes, cross-linked (rat) (UniProt Q91Z63); assay: SPR
[2] = molecular target: MuRF1/telethonin complex co-expressed in yeast from pBridge::MuRF1/telethonin (rat) (UniProt Q91Z63); assay: yeast three-hybrid
[3] = molecular target: GST-MuRF1 (rat, UniProt Q91Z63 1-351); assay: SPR
GST-MuRF1, sequence (Q91Z63 whole entry): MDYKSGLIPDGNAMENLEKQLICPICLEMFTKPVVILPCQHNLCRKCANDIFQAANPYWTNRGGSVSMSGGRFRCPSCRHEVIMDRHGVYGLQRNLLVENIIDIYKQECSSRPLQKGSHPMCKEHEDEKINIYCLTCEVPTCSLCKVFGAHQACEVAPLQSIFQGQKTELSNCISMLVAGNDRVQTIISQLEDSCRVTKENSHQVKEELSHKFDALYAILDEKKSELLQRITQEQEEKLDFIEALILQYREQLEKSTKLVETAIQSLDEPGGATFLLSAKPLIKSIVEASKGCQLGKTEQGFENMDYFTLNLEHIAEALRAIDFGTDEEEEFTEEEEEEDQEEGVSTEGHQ

MuRF1/telethonin complex co-expressed in yeast from pBridge::MuRF1/telethonin (rat), sequence (Q91Z63 whole entry, looked up, one chain of several): as the sequence (Q91Z63 whole entry) above
UBE2E1 fused to the activation domain of GAL4, sequence (P52482 whole entry, the tested form may be a part): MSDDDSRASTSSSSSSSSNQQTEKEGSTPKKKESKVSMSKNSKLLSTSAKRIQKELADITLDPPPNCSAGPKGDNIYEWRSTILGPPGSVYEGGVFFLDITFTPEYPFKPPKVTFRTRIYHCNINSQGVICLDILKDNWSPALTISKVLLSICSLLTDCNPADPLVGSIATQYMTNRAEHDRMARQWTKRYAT
UBE2E1, untagged recombinant, sequence (P52482 whole entry): as the sequence (P52482 whole entry, the tested form may be a part) above

Kd [1] [nM]	percent positive clones [2] [%]	ka of the E2G1 dimer (heterogeneous analyte model) [3] [M⁻¹ s⁻¹]	ka of the E2G1 monomer (heterogeneous analyte model) [3] [M⁻¹ s⁻¹]	Molecule
5				UBE2E1, untagged recombinant (from UniProt P52482 1-193) (enzyme)
	93			UBE2E1 fused to the activation domain of GAL4 (from UniProt P52482 1-193) (enzyme)
	58	~300	~4000	UBE2G1, untagged recombinant (enzyme, human, UniProt P62253 1-170, looked up) MTELQSALLLRRQLAELNKNPVEGFSAGLIDDNDLYRWEVLIIGPPDTLYEGGVFKAHLTFPKDYPLRPPKMKFITEIWHPNVDKNGDVCISILHEPGEDKYGYEKPEERWLPIHTVETIMISVISMLADPNGDSPANVDAAKEWREDRNGEFKRKVARCVRKSQETAFE
